Test results reported in patent publication US4286063A, “Method for producing thrombolytic preparation” (The Green Cross Corporation, priority 1978, dated 1981).

Tests used:
urokinase [1] = experiment: Effect of heat stabilizers on residual urokinase activity after heat treatment; assay type: physicochemical; settings: for residual urokinase activity in the presence of heat stabilizer: after heat treatment, concentrations of Table 2
urokinase [2] = experiment: Residual urokinase activity and molecular weight distribution after dialysis against outer liquids of different pH; assay type: physicochemical, human urine; settings: 40 hours at 4° C.
Experimental: The interrelationship between pH and the ratio of residual urokinase activity as well as the molecular weight distribution:
The resulting solution was dialyzed for 40 hours at 4° C. against an outer liquid of water, a 1 M sodium acetate buffer solution of pH 3.0, 4.0, 5.0, 6.0, 7.0, 8.0, 9.0, 11.0 or 12.0 or a 1/15 M phosphate buffer solution, while renewing the outer liquid at a time interval of 8 hours. After completion of the dialysis, the ratio of residual activity was assayed and molecular weight distribution was roughly evaluated by the molecular sieving by means of gel filtration technique.

urokinase [3] = experiment: Stability of urokinase in heat treatment (60° C., 10 hours), dependence on pH; assay type: physicochemical
Experimental: Dependence of the stability of urokinase in heat treatment on pH:
A phosphate buffer solution was added in various concentrations to an aqueous urokinase solution [specific activity, 15,000 IU/mg; protein concentration, 0.02% (W/V)] to prepare samples of urokinase solutions having pH of 4, 5, 6, 7, 8, 9 and 10. Each sample was heated at 60° C. for 10 hours and the residual activity was compared. After the heat treatment, the heat stabilizer was removed by dialysis and the urokinase activity was assayed to calculate the ratio of residual activity by taking the specific activity before heating as 100%.

[4] = heat stabilizer concentration 0.1 M
[5] = heat stabilizer concentration 5%
[6] = heat stabilizer concentration 10%
[7] = heat stabilizer concentration 15%

## NCCCC[C@H](N)C(=O)O [Lysine, lysine]
Urokinase [1]
  residual urokinase activity in the presence of heat stabilizer: 78%
Urokinase [1]; [4]
  Ratio of residual urokinase activity: 78%

## [Cl-].[Na+] [Sodium chloride, sodium chloride]
Urokinase [1]
  residual urokinase activity in the presence of heat stabilizer: 71-75%
Urokinase [1]; heat stabilizer concentration 0.15 M
  Ratio of residual urokinase activity: 71%
Urokinase [1]; heat stabilizer concentration 0.3 M
  Ratio of residual urokinase activity: 75%

## NCC(=O)O [Glycine, glycine]
Urokinase [1]
  residual urokinase activity in the presence of heat stabilizer: 65-75%
Urokinase [1]; [5]
  Ratio of residual urokinase activity: 65%
Urokinase [1]; [6]
  Ratio of residual urokinase activity: 70%
Urokinase [1]; [7]
  Ratio of residual urokinase activity: 75%

## OC[C@@H](O)[C@@H](O)[C@H](O)[C@H](O)CO [Mannit, mannitol]
Urokinase [1]
  residual urokinase activity in the presence of heat stabilizer: 78%
Urokinase [1]; [5]
  Ratio of residual urokinase activity: 73%
Urokinase [1]; [6]
  Ratio of residual urokinase activity: 73%

## Gelatin
Urokinase [1]
  residual urokinase activity in the presence of heat stabilizer: 88-100%
Urokinase [1]; heat stabilizer concentration 0.5%
  Ratio of residual urokinase activity: 88%
Urokinase [1]; heat stabilizer concentration 1.0%
  Ratio of residual urokinase activity: 91%
Urokinase [1]; heat stabilizer concentration 3.0%
  Ratio of residual urokinase activity: 89%

## O=C(O)CN(CCN(CC(=O)O)CC(=O)O)CC(=O)O [EDTA]
Urokinase [1]; heat stabilizer concentration 0.1%
  Ratio of residual urokinase activity: 23%

## N=C(N)NCCC[C@H](N)C(=O)O [Arginine, arginine]
Urokinase [1]
  residual urokinase activity in the presence of heat stabilizer: 79%
Urokinase [1]; [4]
  Ratio of residual urokinase activity: 79%

## urokinase
Urokinase [2]; Run 1, pH of outer liquid 3
  Activity after dialysis: 6,324 IU
  Ratio of residual activity: 65
Urokinase [2]; Run 2, pH of outer liquid 4
  Activity after dialysis: 6,314 IU
  Ratio of residual activity: 64
Urokinase [2]; Run 3, pH of outer liquid 5
  Activity after dialysis: 6,426 IU
  Ratio of residual activity: 66
Urokinase [2]; Run 4, pH of outer liquid 6
  Activity after dialysis: 7,252 IU
  Ratio of residual activity: 74
Urokinase [2]; Run 5, pH of outer liquid 7
  Activity after dialysis: 8,296 IU
  Ratio of residual activity: 85
Urokinase [2]; Run 6, pH of outer liquid 8
  Activity after dialysis: 10,290 IU
  Ratio of residual activity: 105
Urokinase [2]; Run 7, pH of outer liquid 9
  Activity after dialysis: 9,672 IU
  Ratio of residual activity: 99
Urokinase [2]; Run 8, pH of outer liquid 11
  Activity after dialysis: 9,016 IU
  Ratio of residual activity: 92
Urokinase [2]; Run 9, pH of outer liquid 12
  Activity after dialysis: 8,722 IU
  Ratio of residual activity: 89
Urokinase [2]; outer liquid H2O
  Activity after dialysis: 8,514 IU
  Ratio of residual activity: 86
Urokinase [1]; heat stabilizer absent, pH 6.8 with 0.1 M phosphate buffer
  Ratio of residual urokinase activity: 65%
Urokinase [1]; no phosphate buffer, pH not adjusted
  Ratio of residual urokinase activity: 0%
Urokinase [3]; pH 7, phosphate buffer
  ratio of residual activity after heat treatment: 52%
Urokinase [3]; pH 8, phosphate buffer
  ratio of residual activity after heat treatment: 65%
Urokinase [3]; pH 9, phosphate buffer
  ratio of residual activity after heat treatment: 50%

## OC[C@H]1O[C@@](CO)(O[C@H]2O[C@H](CO)[C@@H](O)[C@H](O)[C@H]2O)[C@@H](O)[C@@H]1O [Sucrose, sucrose]
Urokinase [1]
  residual urokinase activity in the presence of heat stabilizer: 75-78%
Urokinase [1]; [5]
  Ratio of residual urokinase activity: 75%
Urokinase [1]; [6]
  Ratio of residual urokinase activity: 77%
Urokinase [1]; [7]
  Ratio of residual urokinase activity: 78%
